From patent US20210277109A1 (SYSTIMMUNE, published 2021)

What was measured:
[1] = molecular target: Human ROR1-CHO cells (human) (UniProt Q01973); test: FACS; BCC supernatant
Human ROR2 (human) = Human ROR2 (human) (UniProt Q01974); test: ELISA, direct coat; BCC supernatant
[2] = molecular target: recombinant human ROR1 extracellular domain protein (human) (UniProt Q01973); test: ELISA, direct coat; BCC supernatant
[3] = molecular target: T1, human ROR1 'Frizzled-Kringle domain' (human, UniProt Q01973); test: ELISA, direct coat; BCC supernatant
T1 construct: used plain or biotinylated
T1 sequence (Q01973 165-406 limits assumed): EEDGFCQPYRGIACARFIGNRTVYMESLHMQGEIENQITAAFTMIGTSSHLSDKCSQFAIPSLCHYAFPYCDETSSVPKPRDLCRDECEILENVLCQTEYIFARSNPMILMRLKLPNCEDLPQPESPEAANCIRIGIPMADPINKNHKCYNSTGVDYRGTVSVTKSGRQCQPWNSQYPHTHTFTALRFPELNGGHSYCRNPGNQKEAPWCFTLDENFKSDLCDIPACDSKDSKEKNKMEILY

[4] = molecular target: T2, human ROR1 'Ig-Frizzled domain' (human, UniProt Q01973); test: ELISA, direct coat; BCC supernatant
T2 construct: used plain or biotinylated
T2 sequence (Q01973 30-305 limits assumed): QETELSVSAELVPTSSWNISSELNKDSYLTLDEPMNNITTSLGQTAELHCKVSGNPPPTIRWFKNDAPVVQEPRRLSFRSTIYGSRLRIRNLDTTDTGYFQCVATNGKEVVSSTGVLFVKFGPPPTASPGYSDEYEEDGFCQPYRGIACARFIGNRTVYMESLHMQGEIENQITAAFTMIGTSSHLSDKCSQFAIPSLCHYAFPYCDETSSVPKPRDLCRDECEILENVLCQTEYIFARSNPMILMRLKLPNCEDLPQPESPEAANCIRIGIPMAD

[5] = molecular target: T3, mouse ROR1 (serum titer ELISA antigen) (mouse, UniProt Q9Z139 30-403, limits assumed); test: ELISA, direct coat; BCC supernatant
T3 sequence (Q9Z139 30-403 limits assumed): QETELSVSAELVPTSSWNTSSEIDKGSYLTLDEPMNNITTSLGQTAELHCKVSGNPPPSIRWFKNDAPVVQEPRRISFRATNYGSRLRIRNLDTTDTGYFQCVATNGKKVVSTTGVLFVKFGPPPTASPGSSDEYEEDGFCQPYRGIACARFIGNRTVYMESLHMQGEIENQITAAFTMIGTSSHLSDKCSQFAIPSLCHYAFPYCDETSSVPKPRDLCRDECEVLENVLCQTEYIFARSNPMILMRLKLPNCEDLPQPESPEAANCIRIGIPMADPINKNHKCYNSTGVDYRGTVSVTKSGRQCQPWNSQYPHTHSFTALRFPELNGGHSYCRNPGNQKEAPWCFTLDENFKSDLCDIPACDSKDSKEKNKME

[6] = molecular target: T1, human ROR1 'Frizzled-Kringle domain'; test: ELISA, biotinylated antigen on avidin plate; BCC supernatant
[7] = molecular target: T2, human ROR1 'Ig-Frizzled domain'; test: as above
Human ROR2 [8] = molecular target: T4, Human ROR2 (human, UniProt Q01974); test: Octet
T4 sequence (Q01974 34-403 limits assumed): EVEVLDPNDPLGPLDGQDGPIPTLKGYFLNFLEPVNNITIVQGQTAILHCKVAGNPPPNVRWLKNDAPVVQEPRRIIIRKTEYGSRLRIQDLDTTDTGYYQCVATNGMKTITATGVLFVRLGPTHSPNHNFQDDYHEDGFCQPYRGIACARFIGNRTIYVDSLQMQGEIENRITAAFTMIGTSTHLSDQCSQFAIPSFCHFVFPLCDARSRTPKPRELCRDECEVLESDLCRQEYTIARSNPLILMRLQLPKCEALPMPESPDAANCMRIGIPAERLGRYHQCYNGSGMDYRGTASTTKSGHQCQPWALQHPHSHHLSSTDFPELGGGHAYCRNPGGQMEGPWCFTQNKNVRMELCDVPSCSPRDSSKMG

[9] = molecular target: T1, human ROR1 'Frizzled-Kringle domain'; test: Octet
[10] = molecular target: T3, mouse ROR1 (serum titer ELISA antigen); test: Octet
Mouse ROR1-CHO = molecular target: T5, Mouse ROR1-CHO (mouse, UniProt Q9Z139); test: FACS, mouse ROR1-CHO
T5 construct: expressed on the surface of CHO cells; also called mouse ROR1 on CHO cells
T5 sequence (Q9Z139 30-937 limits assumed): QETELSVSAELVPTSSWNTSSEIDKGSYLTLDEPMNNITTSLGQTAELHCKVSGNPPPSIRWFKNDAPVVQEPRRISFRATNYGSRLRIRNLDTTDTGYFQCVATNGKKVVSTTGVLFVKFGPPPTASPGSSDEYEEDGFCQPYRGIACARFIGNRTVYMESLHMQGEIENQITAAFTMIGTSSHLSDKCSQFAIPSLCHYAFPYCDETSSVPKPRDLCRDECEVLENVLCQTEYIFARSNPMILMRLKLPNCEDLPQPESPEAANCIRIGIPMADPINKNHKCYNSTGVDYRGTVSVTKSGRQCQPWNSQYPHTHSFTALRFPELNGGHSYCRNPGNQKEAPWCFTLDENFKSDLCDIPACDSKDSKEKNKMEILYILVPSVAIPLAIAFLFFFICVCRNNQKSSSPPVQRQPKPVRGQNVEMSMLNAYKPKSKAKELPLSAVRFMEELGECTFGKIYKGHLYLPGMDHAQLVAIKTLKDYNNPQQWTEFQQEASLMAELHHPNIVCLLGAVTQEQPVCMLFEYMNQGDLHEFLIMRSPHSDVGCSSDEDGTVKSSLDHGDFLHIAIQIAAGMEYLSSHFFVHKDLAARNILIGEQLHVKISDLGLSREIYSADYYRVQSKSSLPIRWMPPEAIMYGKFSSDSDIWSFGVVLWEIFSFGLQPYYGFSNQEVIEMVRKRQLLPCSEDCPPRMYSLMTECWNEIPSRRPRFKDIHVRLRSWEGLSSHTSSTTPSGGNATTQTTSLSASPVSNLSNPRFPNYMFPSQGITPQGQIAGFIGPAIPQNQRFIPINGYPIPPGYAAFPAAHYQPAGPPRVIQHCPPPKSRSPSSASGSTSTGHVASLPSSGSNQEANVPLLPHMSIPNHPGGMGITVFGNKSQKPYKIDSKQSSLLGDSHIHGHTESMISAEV

[11] = molecular target: T6, recombinant human ROR1 extracellular domain protein (human, UniProt Q01973 30-406); test: Octet, bi-valent binding to human ROR1
T6 construct: extracellular domain; Analyte in solution in the Octet assay; also called human ROR1 ECD
T6 sequence (Q01973 30-406): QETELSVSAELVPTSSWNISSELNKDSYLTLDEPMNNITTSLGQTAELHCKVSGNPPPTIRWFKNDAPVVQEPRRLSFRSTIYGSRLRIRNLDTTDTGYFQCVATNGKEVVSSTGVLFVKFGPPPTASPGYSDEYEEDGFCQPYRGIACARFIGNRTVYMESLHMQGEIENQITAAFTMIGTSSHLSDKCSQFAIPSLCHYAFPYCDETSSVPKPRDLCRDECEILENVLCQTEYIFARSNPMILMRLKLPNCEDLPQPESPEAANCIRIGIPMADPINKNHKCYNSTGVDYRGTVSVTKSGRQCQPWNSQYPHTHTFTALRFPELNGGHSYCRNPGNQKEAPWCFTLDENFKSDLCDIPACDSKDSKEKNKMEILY

[12] = molecular target: T6, recombinant human ROR1 extracellular …; test: Octet, mono-valent binding to human ROR1
Text: The heavy and light chain expression plasmids generated from each well were transiently co-transfected to produce rabbit/human chimeric antibodies. Recombinant antibody supernatants were confirmed to contain anti-ROR1 antibodies using bio-layer interferometry analysis on a ForteBio Octet Red 96 instrument. Anti-human Fc biosensors (Pall ForteBio) were used to capture antibodies in the supernatants. Association to ROR1 was observed by real-time interferometry by placing the biosensors in wells containing recombinant human ROR1 extracellular domain protein. Dissociation was measured after transfer of the biosensors into wells containing 10× kinetics buffer (Pall ForteBio). The software provided by the manufacturer was used to analyze the interferometry data.

[13] = molecular target: T2, human ROR1 'Ig-Frizzled domain'; test: Octet
Human ROR2 [14] = molecular target: T4, Human ROR2; test: ELISA, direct coat; BCC supernatant
[15] = molecular target: T7, human ROR1 'Kringle domain' (human, UniProt Q01973, biotinylated); test: ELISA, biotinylated antigen on avidin plate; BCC supernatant
T7 construct: also called biotinylated human ROR1 Kringle domain
T7 sequence (Q01973 308-395 limits assumed): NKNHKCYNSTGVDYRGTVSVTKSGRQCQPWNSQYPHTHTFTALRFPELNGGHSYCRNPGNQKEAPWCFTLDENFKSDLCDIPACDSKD

[16] = molecular target: T6, recombinant human ROR1 extracellular …; test: ELISA, direct coat; BCC supernatant

Sequence of Human ROR2 (human) (Q01974 34-403 limits assumed): as the sequence (Q01974 34-403 limits assumed) above
Sequence of Human ROR1-CHO cells (human) (Q01973 30-937 limits assumed): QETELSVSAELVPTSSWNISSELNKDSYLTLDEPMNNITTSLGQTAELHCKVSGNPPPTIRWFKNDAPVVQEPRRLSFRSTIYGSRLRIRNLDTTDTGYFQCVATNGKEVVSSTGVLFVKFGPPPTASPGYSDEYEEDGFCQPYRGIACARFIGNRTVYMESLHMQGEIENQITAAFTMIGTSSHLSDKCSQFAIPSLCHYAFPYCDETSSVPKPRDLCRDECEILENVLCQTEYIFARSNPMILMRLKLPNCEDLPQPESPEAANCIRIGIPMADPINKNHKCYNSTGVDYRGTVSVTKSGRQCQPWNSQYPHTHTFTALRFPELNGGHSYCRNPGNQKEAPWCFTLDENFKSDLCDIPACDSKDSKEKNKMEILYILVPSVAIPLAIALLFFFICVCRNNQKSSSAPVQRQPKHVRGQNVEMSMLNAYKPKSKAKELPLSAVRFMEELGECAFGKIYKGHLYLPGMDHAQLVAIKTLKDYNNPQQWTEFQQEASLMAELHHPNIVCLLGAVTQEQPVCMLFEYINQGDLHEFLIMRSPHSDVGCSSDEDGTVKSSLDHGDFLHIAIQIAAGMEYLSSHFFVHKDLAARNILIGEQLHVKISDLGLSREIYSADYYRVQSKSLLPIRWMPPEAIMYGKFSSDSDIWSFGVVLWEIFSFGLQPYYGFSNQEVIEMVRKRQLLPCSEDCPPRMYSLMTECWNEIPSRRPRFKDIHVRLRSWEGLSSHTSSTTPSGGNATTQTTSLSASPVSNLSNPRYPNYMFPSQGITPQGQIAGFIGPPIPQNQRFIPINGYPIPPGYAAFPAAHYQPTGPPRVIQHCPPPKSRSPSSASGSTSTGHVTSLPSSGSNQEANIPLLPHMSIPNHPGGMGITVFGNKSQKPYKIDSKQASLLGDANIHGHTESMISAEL
Sequence of recombinant human ROR1 extracellular domain protein (human) (Q01973 30-406): as the sequence (Q01973 30-406) above

Row | FACS MFI [1] [MFI] | ELISA OD450 (Human ROR2 (human)) [OD450] | ELISA OD450 [3] [OD450] | ELISA OD450 [4] [OD450] | ELISA OD450 [5] [OD450] | ELISA OD450 [6] [OD450] | ELISA OD450 [7] [OD450] | binding result (Human ROR2 [8]) | binding result [9] | binding result [10] | binding result (Mouse ROR1-CHO) | koff [12] [s⁻¹] | Binder | further results
1 | 25 | 0.21 | 0.18 | 1.29 | 2.17 | 0.1 | 0.62 | – | – | – | – | – | 324E2 (antibody, V domains shown, chimeric counterpart m6; also called rabbit IgG of BCC well 324E2) VH: QSVEESGGRLVTPGTPLTLTCTVSGFSLSNNAITWVRQAPGKGLEYIGIISSSGTTYYASWAKGRFTISKTSSTTVDLKMTSLTTEDTATYFCAGAFSVWGPGTLVTVSS VL: AQVLTQTPSSVSAAVGGTVTINCQSSQSVNNNDLAWFQQKPGQPPKRLIYWASKLASGVPSRFKGSGSGTQFILTISDLECDDAATYYCAGGYSGNIYGFGGGTEVEVK | ELISA OD450 [2]: 0.48 OD450
2 | – | – | – | – | – | – | – | no binding | no binding | no binding | no binding | 2.08e-08 | 323H7 chimeric rabbit/human IgG antibody (antibody, V domains shown, Rabbit variable regions on human gamma-1 and human kappa constant domains) VH: QEQLKESGGGLVTPGGTLTLTCTASGFTISRYHMTWVRQAPGKGLEWIGHIYVNNDDTDYASWAKGRFTISKTSTTVDLKITSPTTEDTATYFCARLDVGGGGAYIGDIWGQGTLVTVSS VL: QAVVTQTPSSVSAAVGGTVTISCQSSQSVYNNNDLAWYQQKPGQPPKLLIYYASTLASGVSSRFKGSGSGTQFTLAISDLECDDSATYYCAGGYDTDGLDTFAFGGGTEVEVKR | koff [11]: 0.0062 s⁻¹
3 | – | – | – | – | – | – | – | no binding | – | – | – | 1.26e-08 | 330F11 chimeric rabbit/human IgG antibody (antibody, V domains shown, Rabbit variable regions on human gamma-1 and human kappa constant domains) VH: QSVEESGGRLVTPGTPLTLTCTVSGFSLNNYWMSWVRQAPGEGLEWIGTISSGAYTWFATWATGRFTISKTSTTVDLSITSPTTEDTATYFCARYSSTTDWTYFNIWGPGTLVTVSS VL: DVVMTQTPASVEAAVGGTVTIKCQASQSINNYLAWYQQKPGQPPKLLIYRASTLESGVPSRFKGSGSGTQFTLTISDLECADAATYYCQSYNGVGRTAFGGGTEVEFKR | binding result [13]: no binding
4 | – | – | – | – | – | – | – | – | – | – | – | – | 226E12 (antibody, V domains shown, chimeric counterpart m2; also called rabbit IgG of BCC well 226E12) VH: QSLEESGGRLVTPGTPLTLTCTASEFSLSNYYMSWVRQAPGEGLEWIGAINADSDNTWYPSWVKGRFTISKTSSTTVDLKITSPTIEDTATYFCARSVSNNFAEYNIWGPGTLVTVSS VL: AYDMTQTPSSVSAAVGGTVTIKCQASQRIYSYLAWYQQKPGQPPKLLIYRASTLASGVPSRFKGSGSGTEYTLTISDLECADAATYYCQQGASMVDVENMFGGGTEVVVK | ELISA OD450 (Human ROR2 [14]): 0.09 OD450; ELISA OD450 [15]: 0.41 OD450
5 | – | – | – | – | – | – | – | no binding | no binding | no binding | no binding | 1.35e-08 | 324C7 chimeric rabbit/human IgG antibody (antibody, V domains shown, Rabbit variable regions on human gamma-1 and human kappa constant domains) VH: QSVEESGGRLVTPGTPLTLTCTVSGFSLSGAGVSWVRQAPGKGLEWIGYIDSGATTYYASWAKGRFTISKASTTVDLKIASPTTEDTATYFCARGYYGMDPWGQGTLVTVSS VL: DIVMTQTPASVEVAVGGTVTIKCQASQNIGSDLAWYQQKPGQPPKLLIYTTSNLASGVPSRFKGSGSGTGFTLTISDLECADAASYCCQGGYFSGRNIYGNAFGGGTEVVVKR | –
6 | 20 | 0.23 | 0.32 | 1.94 | 4 | 0.17 | 2.23 | – | – | – | – | – | 323D10 (antibody, V domains shown, chimeric counterpart m5; also called rabbit IgG of BCC well 323D10) VH: QSVEESGGRLVTPGTPLTLTCTVSGFSLSRNAMNWVRQAPGKGLEYIGYISTSGTTFYANWVKGRFTISKTSTTVDLKMTSLTTEDTATYFCARDYNYAMDIWGQGTLVTVSS VL: AIDLTQTPASVEAAVGGTITINCQASESISSWLAWYQQKPGQRPKLLIYETSKLASGVPPRFSGSGSGTQFTLTISGVQCDDAATYYCQSYYRINNIGYDNAFGGGTEVEFK | ELISA OD450 [16]: 2.32 OD450
